According to patent publication US6458354B1, “Molecular complexes which modify immune responses” (The Johns Hopkins University, priority 1996, dated 2002):
Values joined by “and” are separate entries in the source; they are usually repeats but may differ in a detail not shown here. Equal entries are not always repeated. Where no end group is shown, it is not given here.

What was measured:
[1] = molecular target: p2Ca-loaded H-2 L^d (mouse) (UniProt P01897); test: cell-based or functional assay
[2] = molecular target: SIY-loaded H-2 K^bm3 (mouse); test: cell-based or functional assay
[3] = molecular target: dEV-8-loaded H-2 K^bm3 (mouse); test: cell-based or functional assay
[4] = molecular target: SIY-loaded H-2 K^b (mouse) (UniProt P01901); test: cell-based or functional assay
SIY-loaded H-2 K^b (mouse), sequence (P01901 22-369): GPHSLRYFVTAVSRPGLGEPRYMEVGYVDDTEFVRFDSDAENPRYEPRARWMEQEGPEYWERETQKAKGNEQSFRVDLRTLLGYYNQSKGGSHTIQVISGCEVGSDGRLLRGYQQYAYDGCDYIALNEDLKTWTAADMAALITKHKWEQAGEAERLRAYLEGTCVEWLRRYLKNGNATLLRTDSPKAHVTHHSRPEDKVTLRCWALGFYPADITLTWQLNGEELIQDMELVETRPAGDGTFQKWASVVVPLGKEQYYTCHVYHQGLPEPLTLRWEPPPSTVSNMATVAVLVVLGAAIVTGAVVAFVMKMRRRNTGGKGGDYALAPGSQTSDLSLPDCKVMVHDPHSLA

[5] = test system: 2C CTL, T2 K^bm11 target cells; test: 2C CTL mediated lysis of peptide-loaded T2 K^bm11 targets; format: cell-based, mice; conditions: data not shown
Procedure: (§1) CTL Assays. Splenocytes from 2C TCR transgenic mice (Sha et al. Nature 336:73-76, 1988) were resuspended at 1.25×10^6 per ml and stimulated with 1.75×10^6 BALB/c splenocytes that had been exposed to 3,000 cGy radiation. On day 7, the 2C T cell-enriched cultures were restimulated at 5×10^5 per ml with 2.5×10^6 per ml BALB/c splenocytes. Experiments were performed on this and subsequent stimulationUs on day 4. All subsequent stimulation was performed with 3.75×10^5 per ml 2C splenocytes and 2.5×10^6 per ml BALB/c cells in the presence of IL-2 (5 units/ml).
(§2) Assays were performed in triplicate according to established CTL protocols. Briefly, target cells (2-4×10^6) were incubated with […] ^51[Cr] at 37° C. for 1 h. After three washes, cells were added to V-bottom 96 well plates (3×10^3/100 μl) and incubated (25° C. for 1.5 hour) with peptides at the indicated concentrations. 2C T cells (3×10^4/100 μl) were added to targets and plates were incubated at 37° C. for 4.5 hour. Maximum release was achieved by incubating targets with 5% Triton X 100. Percent specific lysis was calculated from raw data using [(experimental release—spontaneous release )/(maximum release—spontaneous release)]×100.

[6] = test system: 2C CTL, T2 K^bm3 target cells; format: cell-based
Procedure: (§3) FIGS. 12(A-C). 2C CTL mediated lysis on various peptide/MHC targets. […] Peptide-loaded target cells were then incubated at an effector to target ratio of 10:1 and specific lysis calculated as described below. Data shown are representative of three separate experiments.
as §1, §2

[7] = test system: 2C CTL, T2 K^b target cells; format: cell-based
Procedure: as §3, §1, §2

[8] = molecular target: 2C TCR; conditions: read-out: Kd (μM) of 2C TCR for peptide/MHC complex; MHC restriction H-2 Ld; monovalent 2C TCR; cited from earlier work
[9] = test system: RENCA cells; test: Effect of γ-IFN on endogenous peptide/H-2 L^d complexes of RENCA cells, FACS with 2C TCR/Ig or mAb 30.5.7; format: cell-based, murine; conditions: for effect of prior incubation of RENCA cells with peptide on 2C TCR/Ig binding: saturating peptide
Procedure: FIGS. 13(A-H). Fluorescence data showing modulation of endogenous 2C specific peptide/H-2 L^d complexes on the surface of RENCA cells by γ-IFN. RENCA cells were cultured for 48 hours with 0 (FIGS. 13A and 13E), 5 (FIGS. 13B and 13F), 10 (FIGS. 13C and 13G), or 50 (FIGS. 13D and 13H) units/ml γ-IFN. […] This was accomplished by incubating RENCA cells with saturating amounts of the H-2 L^d binding peptide, MCMV, which efficiently displaced the endogenous H-2 L^d bound peptides, including any 2C-reactive peptides. […] Cells were subsequently stained with GAM-IgG-RPE and analyzed by FACS. Resultant histograms are shown. Solid lines represent histograms of cultures with no added peptide while dotted lines represent histograms from cultures incubated with pMCMV. All experiments were done in duplicate and repeated at least three times. Note the differences in the extent of fluorescence (see the scales on the histograms) upon staining with 2C-TCR/Ig vs. staining with 30.5.7.
Peptide Loading of Cells. RMA-S and T2 cell lines are defective in antigen processing and express functionally “empty” class I MHC on their cell surface. These “empty” MHC molecules can be loaded with peptides using the following protocol (25). Cells (RMA-S, RMA-S L^d, T2, T2 L^d, T2 Kb, T2 Kbm3 or T2 K^bm11) are cultured at 27° C. overnight. The following morning, cells are cultured in the presence of various antigenic peptides (100 μM final concentration) or in the absence of peptides for an additional 1.5 hours at 27° C. and then incubated for one hour at 37° C. RENCA cells were loaded with peptides by incubation with peptides (100 μM final concentration) for >2 hour at 37° C. Cells were then harvested and processed for FACS analysis as described.
To analyze this possibility and to follow the expression of endogenous 2C-reactive peptide/H-2 L^d complexes within a heterogeneous peptide/MHC environment, the influence of γ-IFN on the H-2 L^d -expressing murine cell line RENCA was studied.
RENCA cells were cultured in the presence of variable amounts of γ-IFN to induce up-regulation of naturally loaded peptide/MHC complexes. […] The effect of γ-IFN was dose dependent with a maximal 2-3 fold increase seen on cells treated with 10 units/ml of γ-IFN.

[10] = molecular target: serologically reactive H-2 L^d on RENCA cells (murine) (UniProt P01897); test: flow cytometry on unstimulated RENCA cells
serologically reactive H-2 L^d on RENCA cells (murine), sequence (P01897 25-362): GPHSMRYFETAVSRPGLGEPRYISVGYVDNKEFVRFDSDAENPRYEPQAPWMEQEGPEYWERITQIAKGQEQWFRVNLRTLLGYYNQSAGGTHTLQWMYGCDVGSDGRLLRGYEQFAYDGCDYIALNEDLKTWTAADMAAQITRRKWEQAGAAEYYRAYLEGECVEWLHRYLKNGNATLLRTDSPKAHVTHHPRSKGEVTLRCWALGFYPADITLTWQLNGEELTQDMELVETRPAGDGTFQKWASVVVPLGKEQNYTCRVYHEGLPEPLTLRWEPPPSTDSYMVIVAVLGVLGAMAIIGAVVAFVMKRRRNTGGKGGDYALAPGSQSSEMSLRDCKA

[11] = molecular target: serologically reactive H-2 L^d on RENCA cells (murine) (UniProt P01897); test: flow cytometry on RENCA cells stimulated with 5-50 units/ml γ-IFN
[12] = molecular target: QL9-loaded H-2 L^d (mouse) (UniProt P01897); test: direct flow cytometry on peptide-loaded L^d cells
QL9-loaded H-2 L^d (mouse), sequence (P01897 25-362): as above

[13] = molecular target: pVSV-loaded H-2 K^b (mouse) (UniProt P01901); test: flow cytometry on peptide-loaded T2 K^b cells
pVSV-loaded H-2 K^b (mouse), sequence (P01901 22-369): as the sequence (P01901 22-369) above

[14] = molecular target: SIY-loaded H-2 K^b (mouse) (UniProt P01901); test: flow cytometry on peptide-loaded T2 K^b cells
[15] = molecular target: p2Ca-loaded H-2 L^d (mouse) (UniProt P01897); test: flow cytometry, serial dilutions on peptide-loaded RMA-S L^d cells, H57-FITC detection
[16] = molecular target: QL9-loaded H-2 L^d (mouse) (UniProt P01897); test: as above
[17] = molecular target: SIY-loaded H-2 K^bm3 (mouse); test: flow cytometry on peptide-loaded T2 K^bm3 cells
[18] = molecular target: pVSV-loaded H-2 K^bm3 (mouse); test: flow cytometry on peptide-loaded T2 K^bm3 cells
[19] = molecular target: SL9-loaded H-2 L^d (mouse) (UniProt P01897); test: direct flow cytometry on peptide-loaded RMA-S L^d cells
SL9-loaded H-2 L^d (mouse), sequence (P01897 25-309): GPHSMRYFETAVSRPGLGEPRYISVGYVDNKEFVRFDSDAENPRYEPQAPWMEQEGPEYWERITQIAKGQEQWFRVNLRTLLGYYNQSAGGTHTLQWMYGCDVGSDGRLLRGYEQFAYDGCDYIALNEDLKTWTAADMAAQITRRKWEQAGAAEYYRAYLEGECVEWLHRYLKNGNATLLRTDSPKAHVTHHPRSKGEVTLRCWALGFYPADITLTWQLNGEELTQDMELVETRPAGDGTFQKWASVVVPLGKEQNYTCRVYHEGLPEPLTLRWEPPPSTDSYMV

soluble divalent 2C TCR/Ig, sequence (A2KF29 whole entry, looked up, tested part not stated): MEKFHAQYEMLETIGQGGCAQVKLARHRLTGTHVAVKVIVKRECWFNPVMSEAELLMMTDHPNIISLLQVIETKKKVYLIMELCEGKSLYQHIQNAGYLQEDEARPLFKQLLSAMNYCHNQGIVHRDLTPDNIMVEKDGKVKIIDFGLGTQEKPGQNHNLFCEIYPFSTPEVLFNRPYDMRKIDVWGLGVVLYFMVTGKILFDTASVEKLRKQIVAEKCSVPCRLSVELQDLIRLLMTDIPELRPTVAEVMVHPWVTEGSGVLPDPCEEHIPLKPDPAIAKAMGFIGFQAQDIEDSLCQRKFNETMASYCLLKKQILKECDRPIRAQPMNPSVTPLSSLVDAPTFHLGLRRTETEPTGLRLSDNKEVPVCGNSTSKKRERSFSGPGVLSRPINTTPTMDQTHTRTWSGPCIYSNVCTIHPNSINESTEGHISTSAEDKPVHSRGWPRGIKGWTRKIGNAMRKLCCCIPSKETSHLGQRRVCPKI
2C TCR on 2C CTL, sequence (A2KF29 whole entry): as the sequence (A2KF29 whole entry, looked up, tested part not stated) above
p2Ca-loaded H-2 L^d (mouse), sequence (P01897 25-362): as the sequence (P01897 25-362) above

In the case of 2C TCR on 2C CTL (from UniProt A2KF29), the LD50 of peptide for 2C CTL mediated lysis of p2Ca-loaded T2 L^d cells [1] was 0.5 ng/mL, the LD50 of peptide for 2C CTL mediated lysis [2] was 100 ng/mL and the LD50 of peptide for 2C CTL mediated lysis [3] was 0.5 ng/mL and 1 ng/mL. It also gave an LD50 of peptide for 2C CTL mediated lysis [4] of 10 ng/mL.

With EQYKFYSV [dEV-8] the “2C CTL mediated lysis of peptide loaded targets” value [5] was “relatively poor targets”, the “2C CTL mediated lysis of peptide loaded targets” value [6] was “efficiently lysed” and the “2C CTL mediated lysis of peptide loaded targets” value [7] was “neither lysed”.

For LSPFPFDL [p2Ca], the Kd [8] is listed as 0.1 to 0.5 µM.

In the case of LSPFPFDLL [SL9], the Kd [8] is given as 71 µM.

For QLSPFPFDL [QL9], the Kd [8] is given as 0.066 µM and the “effect of prior incubation of RENCA cells with peptide on 2C TCR/Ig binding” value [9] is given as “dramatic increase”.

In the case of SIYRYYGL [SIY], the “2C CTL mediated lysis of peptide loaded targets” value [5] was “efficient lysis”, the “2C CTL mediated lysis of peptide loaded targets” value [6] was “significantly less efficient” and the “LD50 of peptide for 2C CTL mediated lysis” value ([6]; T2 K^bm3 targets, effector to target ratio 10:1) was about 100 ng/mL. For the same substance, the “2C CTL mediated lysis of peptide loaded targets” value [7] was “efficient lysis”.

In the case of YPHFMPTNL [pMCMV], the “effect of prior incubation of RENCA cells with peptide on 2C TCR/Ig binding” value [9] was “blocked”.

mAb 30.5.7 (antibody) gave a mean channel fluorescence (MCF) [10] of 500 and a mean channel fluorescence (MCF) [11] of 2670 to 3040.

In the case of “soluble divalent 2C TCR/Ig (from UniProt A2KF29)”, the mean channel fluorescence (MCF) [12] was 3000, the mean channel fluorescence (MCF) [13] was 14 and the mean channel fluorescence (MCF) [14] was 276. For the same substance, the concentration required to detect binding [15] was 3 nM, the lowest concentration tested, at which binding was detected [16] was 1 nM and the mean channel fluorescence (MCF) [17] was 36. It also gave a mean channel fluorescence (MCF) [18] of 12 and a mean channel fluorescence (MCF) [19] of 100.

With “γ-IFN: lymphokine used to up-regulate naturally loaded peptide/MHC complexes on RENCA cells” the “increase in serologically reactive H-2 L^d recognized by mAb 30.5.7” value ([9]; 5-50 units/ml γ-IFN, 48 hours) was 5-6 fold and the “maximal increase of 2C TCR/Ig binding to RENCA cells” value ([9]; 10 units/ml γ-IFN, 48 hours) was 2-3 fold.
